Results: article PMC314469, “Protein Interaction Networks by Proteome Peptide Scanning” (PLoS Biology, 2004)

T1: Boi1 SH3 (BOI1_YEAST), P38041
T1 chain: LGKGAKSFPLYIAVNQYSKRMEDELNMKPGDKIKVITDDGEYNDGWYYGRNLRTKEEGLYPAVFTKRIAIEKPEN

T2: Yhr016c SH3 (YSC84_YEAST), P32793
T2 chain: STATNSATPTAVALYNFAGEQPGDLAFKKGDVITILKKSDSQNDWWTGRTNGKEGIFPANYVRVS

T3: Rvs167 SH3 (RV167_YEAST), P39743
T3 chain: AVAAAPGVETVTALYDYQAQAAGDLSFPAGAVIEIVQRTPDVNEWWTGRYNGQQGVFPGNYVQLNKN

T4: Boi2 SH3 (BOI2_YEAST), P39969
T4 chain: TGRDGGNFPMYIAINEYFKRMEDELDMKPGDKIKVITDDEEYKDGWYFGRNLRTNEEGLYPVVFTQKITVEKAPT

T5: Yfr024 SH3 (LSB3_YEAST), P43603
T5 chain: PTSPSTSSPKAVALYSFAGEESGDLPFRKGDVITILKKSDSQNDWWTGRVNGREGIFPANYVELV

T6: Myo5 SH3 (MYO5_YEAST), Q04439
T6 chain: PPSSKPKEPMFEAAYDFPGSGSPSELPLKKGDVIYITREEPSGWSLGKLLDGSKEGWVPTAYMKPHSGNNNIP


Legend:
Assay in all cases: SPOT array
[1] = molecular target: T1, Boi1 SH3 (BOI1_YEAST), P38041
[2] = molecular target: T2, Yhr016c SH3 (YSC84_YEAST), P32793
[3] = molecular target: Sho1 SH3 (SHO1_YEAST), P40073
Sequence of Sho1 SH3 (SHO1_YEAST), P40073 (P40073 295-366): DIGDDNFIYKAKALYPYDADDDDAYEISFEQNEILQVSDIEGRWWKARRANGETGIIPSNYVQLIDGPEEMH

[4] = molecular target: T3, Rvs167 SH3 (RV167_YEAST), P39743
[5] = molecular target: T4, Boi2 SH3 (BOI2_YEAST), P39969
[6] = molecular target: T5, Yfr024 SH3 (LSB3_YEAST), P43603
[7] = molecular target: T6, Myo5 SH3 (MYO5_YEAST), Q04439

Binder	normalised SPOT signal, Boehringer light units (BLU); mean over the file's lines of this peptide [1]	normalised SPOT signal, Boehringer light units (BLU); mean over the file's lines of this peptide [2]	normalised SPOT signal, Boehringer light units (BLU); mean over the file's lines of this peptide [3]	normalised SPOT signal, Boehringer light units (BLU); mean over the file's lines of this peptide [4]	normalised SPOT signal, Boehringer light units (BLU); mean over the file's lines of this peptide [5]	normalised SPOT signal, Boehringer light units (BLU); mean over the file's lines of this peptide [6]	normalised SPOT signal, Boehringer light units (BLU); mean over the file's lines of this peptide [7]
SNRARYLPQNPDII [YBR195C 132-145]	386	47.2	35.8	36.2	45.5	304	244
SAKSKSRPNTPGSD [YIR007W 739-752]	1740	0	146	129	23.7	122	153
AVGGKWEPGNPIAI [YHR113W 80-93]	41.1	19.6	0	39.6	14.1	17.2	78.4
SKYNRQHPANPAAA [YPL247C 221-234]	210	38.8	65.9	61.3	48.5	126	189
ATEAKSLPKIPSIP [YPL176C 343-356]	108	67.6	19100	47.7	58.5	39.5	137
AVQLKRQPAQPRES [YBR191W 125-138]	1480	41.3	65	73.8	14.1	438	238

Second part, the binder after the results:

normalised SPOT signal, Boehringer light units (BLU); mean over the file's lines of this peptide [1]	normalised SPOT signal, Boehringer light units (BLU); mean over the file's lines of this peptide [2]	normalised SPOT signal, Boehringer light units (BLU); mean over the file's lines of this peptide [3]	normalised SPOT signal, Boehringer light units (BLU); mean over the file's lines of this peptide [4]	normalised SPOT signal, Boehringer light units (BLU); mean over the file's lines of this peptide [5]	normalised SPOT signal, Boehringer light units (BLU); mean over the file's lines of this peptide [6]	normalised SPOT signal, Boehringer light units (BLU); mean over the file's lines of this peptide [7]	Binder
1950	304	19.5	48.5	21.6	816	169	ASFRKTKPPPPLDF [YAL017W 81-94]
263	28.1	30.2	49.7	59.9	204	274	ATKRKTIPVYPPVQ [YCR046C 20-33]
713	3.4	3780	76.9	16.2	29.1	401	AQKLKLLPEEPFQR [YDL001W 74-87]
59.6	19	35.8	46.5	15	23.2	209	SFKTKFAPEAPDLF [YDL195W 303-316]
99.5	32.4	93.3	31.8	24.9	132	112	AVVYKLKPYIPSLS [YGR284C 61-74]
644	13.3	51.1	28.9	17	27.6	76.2	ATVVKNSPGDPELF [YNL187W 329-342]
15.3	9.5	13.9	12.9	-0	34.4	102	AVLIRADPLNPKVV [YCR028C 355-368]
638	9.1	58.5	46.2	0	157	208	SLRARNGPVPPVHI [YIR027C 235-248]
349	16.3	65.5	80.6	1.5	214	953	ASKHKMFPFNPAKI [YLR115W 531-544]
127	92.2	52.8	80.9	4	3620	136	ATGKRKLPGWPSAD [YIL165C 34-47]
